Source: publication PMC4990258, “Mutations at the Subunit Interface of Yeast Proliferating Cell Nuclear Antigen Reveal a Versatile Regulatory Domain” (PLoS ONE, 2016)

Biological target: T1, GST-Rev1 (full-length Rev1) (S. cerevisiae, UniProt P12689 1-985)
T1 construct: Rev1, yeast, full-length; Held on the beads by GST during the incubation; Rev1 was cut from GST by PreScission protease only at the elution step; not shown: GST, N-terminal, kept
T1 sequence (looked up): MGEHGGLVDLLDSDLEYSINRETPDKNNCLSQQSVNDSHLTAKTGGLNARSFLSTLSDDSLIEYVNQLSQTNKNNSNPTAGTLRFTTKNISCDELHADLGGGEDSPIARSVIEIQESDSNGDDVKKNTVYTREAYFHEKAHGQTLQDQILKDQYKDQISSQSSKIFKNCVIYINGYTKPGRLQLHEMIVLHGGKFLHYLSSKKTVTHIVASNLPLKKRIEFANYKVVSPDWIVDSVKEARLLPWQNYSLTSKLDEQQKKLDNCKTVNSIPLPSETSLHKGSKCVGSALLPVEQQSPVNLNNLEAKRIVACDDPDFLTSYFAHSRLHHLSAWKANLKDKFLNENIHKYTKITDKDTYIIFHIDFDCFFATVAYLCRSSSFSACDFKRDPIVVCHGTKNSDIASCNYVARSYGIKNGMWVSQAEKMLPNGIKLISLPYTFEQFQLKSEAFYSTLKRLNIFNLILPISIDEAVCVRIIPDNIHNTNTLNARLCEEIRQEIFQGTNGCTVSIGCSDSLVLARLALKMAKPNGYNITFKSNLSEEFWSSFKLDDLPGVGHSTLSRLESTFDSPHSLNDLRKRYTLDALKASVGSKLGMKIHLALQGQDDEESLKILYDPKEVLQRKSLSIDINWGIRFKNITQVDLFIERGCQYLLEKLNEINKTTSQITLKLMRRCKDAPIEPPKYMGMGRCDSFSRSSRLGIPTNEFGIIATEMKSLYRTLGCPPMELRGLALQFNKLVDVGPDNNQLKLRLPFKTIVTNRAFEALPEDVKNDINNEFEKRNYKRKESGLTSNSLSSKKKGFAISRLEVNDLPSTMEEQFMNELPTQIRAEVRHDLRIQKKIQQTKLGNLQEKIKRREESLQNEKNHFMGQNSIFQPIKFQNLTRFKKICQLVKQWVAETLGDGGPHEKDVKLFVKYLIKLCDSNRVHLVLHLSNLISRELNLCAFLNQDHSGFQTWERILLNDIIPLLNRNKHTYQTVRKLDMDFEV
Assay: pull-down; GST-Rev1 (5 μg) immobilised on glutathione-Sepharose beads, incubated with purified PCNA (3 μg) overnight on ice; 50 mM Tris/HCl pH 7.5, 100 mM NaCl, 1 mM EDTA, 1 mM DTT, 10% glycerol, 0.01% Nonidet P-40; five washes; eluted by PreScission protease cleavage of Rev1 from GST; SDS-PAGE
Settings: both partners purified

binding result: binds
B1: wild type PCNA (proliferating cell nuclear antigen, Saccharomyces cerevisiae) (natural protein, S. cerevisiae)
chain: MLEAKFEEASLFKRIIDGFKDCVQLVNFQCKEDGIIAQAVDDSRVLLVSLEIGVEAFQEYRCDHPVTLGMDLTSLSKILRCGNNTDTLTLIADNTPDSIILLFEDTKKDRIAEYSLKLMDIDADFLKIEELQYDSTLSLPSSEFSKIVRDLSQLSDSINIMITKETIKFVADGDIGSGSVIIKPFVDMEHPETSIKLEMDQPVDLTFGAKYLLDIIKGSSLSDRVGIRLSSEAPALFQFDLKSGFLQFFLAPKFNDEE
notes: PCNA (POL30 gene product), Saccharomyces cerevisiae, wild type; the oligomeric state of the purified protein was not measured here; also called wt PCNA; yeast PCNA; source: yeast BJ5464, overexpressed as GST fusion, purified on glutathione-Sepharose 4B, GST removed by PreScission protease; not shown: GST, N-terminal, cleaved
